From patent US7303876B2 (Applera Corporation, priority 2000, dated 2007)

Experiments:
[1] = tested on: BoDipy-labeled Casein Conjugate; test: Proteinase K digestion of BoDipy-labeled Casein Conjugate (fluorescence); assay type: biochemical; conditions: one hour, 60° C.
Source text: An assay was developed to measure the activity of Proteinase K with BoDipy-labeled Casein Conjugate (Enz Check Protease Assay Kit, Product number E6638; Molecular Probes, Eugene, Oreg.). The concentration of fluorescent BoDipy moieties in this derivatized conjugate is sufficiently high so that when the protein is intact, the fluorescence of individual moieties is quenched. Upon digestion of the derivatized casein by a protease, however, peptides containing a lower number of BoDipy dye molecules are released, resulting in an increase in fluorescence. To determine an initial dynamic range for an assay, BoDipy-labeled Casein was digested for one hour with a decreasing concentration of Proteinase K as follows. […] Following a one hour incubation at 60° C. with mixing, 100 μL aliquots were transferred to a 96-well optical plate (MicroAmp® Optical 96-Well Reaction Plate, Applied Biosystems, Foster City, Calif.) and the fluorescence was measured in an ABI Prism 7700 spectrophotometer (Applied Biosystems). The background fluorescence was determined by incubating the substrate in buffer without Proteinase K.

slices of liver = test: Maceration of liver slices by reaction compositions at 65° C.; conditions: 65° C.; for maceration of liver slice: 1 mg/ml Proteinase K, No Additives
Procedure: Initially, a series of reaction compositions were analyzed for their ability to disaggregate a biological sample, e.g., slices of liver. These reaction compositions comprised 100 mM Tris, pH 8.0, 20 mM dithiothreitol (DTT), and optionally,1 mg/ml Proteinase K, surfactants (e.g., cationic, nonionic and anionic detergents), chaotropes, or the additive 1-methyl-2-pyrollidinone (Sigma). Each reaction compositions was placed in a tube with a slice of liver and then incubated at 65° C. The tubes were observed periodically to determine which reaction compositions were able to efficiently macerate the sample.

Proteinase K = molecular target: T1, Proteinase K (Parengyodontium album, UniProt P06873); test: Effect of surfactants on Proteinase K digestion of dye-labeled casein substrate; assay type: biochemical; conditions: water, 0 minutes incubation, ambient temperature
T1 construct: purchased Ambion 2546
Procedure: To test the effect of cationic surfactants on the activity of Proteinase K, a series of reaction compositions were prepared as follows. Reaction compositions comprised: Casein BoDipy conjugate (1 μg, 10 ng/μL), 10 mM Tris, pH 8, 20 mM CaCl2, 1% surfactant (shown in Table 2 below) and a dilution series of Proteinase K at concentrations of 20 μg/ml, 5 μg/ml, 1.25 μg/ml, 0.31 μg/ml, 0.078 μg/ml, 0.02 μg/ml and 0.005 μg/ml. […] Reaction tubes were incubated at 60° C. in a 96-well optical plate (MicroAmp® Optical 96-Well Reaction Plate, Applied Biosystems) and the amount of released fluorescence was measured at the indicated time points using an ABI Prism 7700.

B1: Proteinase K: protease (subtilisin), Ambion (protein, UniProt P06873 106-384, looked up)
Proteinase K: AAQTNAPWGLARISSTSPGTSTYYYDESAGQGSCVYVIDTGIEASHPEFEGRAQMVKTYYYSSRDGNGHGTHCAGTVGSRTYGVAKKTQLFGVKVLDDNGSGQYSTIIAGMDFVASDKNNRNCPKGVVASLSLGGGYSSSVNSAAARLQSSGVMVAVAAGNNNADARNYSPASEPSVCTVGASDRYDRRSSFSNYGSVLDIFGPGTSILSTWIGGSTRSISGTSMATPHVAGLAAYLMTLGKTTAASACRYIADTANKGDLSNIPFGTVNLLAYNNYQA
[1]
  lowest Proteinase K concentration with released fluorescence detected: 50 ng/mL
[1]; 10 μg/ml BoDipy-labeled Casein Conjugate
  fluorescence signal plateau: around 30,000 fluorescence units
Slices of liver; 2-5 hr
  maceration of liver slice: 0%
Slices of liver; 16-24 hr
  maceration of liver slice: 75%
Slices of liver
  ability to macerate the liver sample (in words): effectively digest the liver tissue, but only after extended incubation
Proteinase K
  proteolytic activity of Proteinase K without surfactant: high proteolytic activity
